Data reported in article PMC10937716.

Key:
Assay in all cases: cryo-EM structure; purified BAV virions (full and partial particles) in 1x PBS pH 7.4; icosahedral reconstruction and local reconstructions of the fivefold vertex, of RdRp and of VP9
[1] = biological target: Banna virus (BAV) strain YN15-126-01 VP4, membrane penetration protein (spike) (Banna virus strain YN15-126-01)
[2] = biological target: Banna virus (BAV) strain YN15-126-01 VP8, outer capsid protein (Banna virus strain YN15-126-01)
[3] = biological target: Banna virus (BAV) strain YN15-126-01 VP9, receptor binding protein (spike) (Banna virus strain YN15-126-01)

## Banna virus (BAV) strain YN15-126-01 VP4, membrane penetration protein (spike) (natural protein)
[1]
  stoichiometry N: 3

## Banna virus (BAV) strain YN15-126-01 VP8, outer capsid protein (natural protein)
[2]
  stoichiometry N: 3

## Banna virus (BAV) strain YN15-126-01 VP9, receptor binding protein (spike) (natural protein)
[3]
  stoichiometry N: 3
